Measurements published in paper PMC6195595.
Each block holds one substance with its values, some of them ahead of it.

How the values were obtained:
[1] = target: Kj12C N-terminal docking domain (Xenorhabdus stockiae KJ12.1); experiment: ITC; 50 µM NDD (or Kj12C construct) in the cell titrated with 1 mM CDD peptide; 20 °C; 50 mM sodium phosphate pH 6.5, 100 mM NaCl; one site binding model; three independent titrations
[2] = target: Kj12C-^NDD (N-terminal docking domain of Kj12C) (Xenorhabdus stockiae KJ12.1); experiment: ITC; 50 µM ^NDD protein in the cell titrated with 1 mM ^CDD peptide or variant, 20 °C, 50 mM sodium phosphate pH 6.5, 100 mM NaCl, one site binding model, three independent titrations
[3] = target: Kj12B N-terminal docking domain (Xenorhabdus stockiae KJ12.1); experiment: ITC; 50 µM NDD (or Kj12C construct) in the cell titrated with 1 mM CDD peptide; 20 °C; 50 mM sodium phosphate pH 6.5, 100 mM NaCl; one site binding model; three independent titrations
[4] = target: Kj12B-NDD K26Q, K28E (Xenorhabdus stockiae KJ12.1); experiment: as above
[5] = target: Kj12C-NDD-Cterm (full-length Kj12C module) (Xenorhabdus stockiae KJ12.1); experiment: as above
[6] = target: Kj12B-NDD K24R, K26Q, K28E (Xenorhabdus stockiae KJ12.1); experiment: as above
[7] = target: Kj12C-NDD Q26K, E28A (Xenorhabdus stockiae KJ12.1); experiment: as above
[8] = target: Kj12B-NDD K28E (Xenorhabdus stockiae KJ12.1); experiment: as above
[9] = target: Kj12A-^NDD (N-terminal docking domain of Kj12A) (Xenorhabdus stockiae KJ12.1); experiment: ITC; 50 µM ^NDD protein in the cell titrated with 1 mM ^CDD peptide or variant, 20 °C, 50 mM sodium phosphate pH 6.5, 100 mM NaCl, one site binding model, three independent titrations
[10] = target: Kj12B-^NDD (N-terminal docking domain of Kj12B) (Xenorhabdus stockiae KJ12.1); experiment: as above
[11] = target: Kj12B thiolation domain with CDD (Xenorhabdus stockiae KJ12.1); experiment: ITC; Kj12B T-domain-CDD in the cell (given as 50 mM) titrated with 1 mM Kj12C-NDD in the syringe; 20 °C; 50 mM sodium phosphate pH 6.5, 100 mM NaCl; one site binding model

Substance: Kj12A-CDDshort E1169R, H1171E peptide
stoichiometry N [1]: 1.3 sites

Substance: Kj12A-^CDD peptide (C-terminal docking domain of Kj12A)
Kd [2]: 100 µM

Substance: Kj12A-^CDD peptide with E1169R and H1171E (double mutant)
Kd [2]: 3.5 µM

Substance: Kj12B-CDDshort R1565E peptide
stoichiometry N [3]: 1.15 sites

Substance: Kj12B-CDDshort peptide
Kd [4]: 20.4 µM
stoichiometry N [4]: 1 sites
Kd [5]: 8 µM
stoichiometry N [5]: 1 sites
stoichiometry N [6]: 0.97 sites
Kd [7]: 80 µM
stoichiometry N [7]: 1 sites
Kd [8]: 33 µM
stoichiometry N [8]: 1 sites

Substance: Kj12B-^CDD peptide (C-terminal docking domain of Kj12B)
Kd [9]: 8 µM
Kd [10]: 62 µM
Kd [2]: 8 µM

Substance: Kj12B-^CDD peptide R1565E
Kd [10]: 13 µM

Substance: Kj12B-^CDD_(short) peptide
Kd [2]: 15 µM

Kd [11]: 19 µM
stoichiometry N [11]: 1.2 sites
Substance: Kj12C N-terminal docking domain (domain or fragment)
